Laboratory results from US9994628B2, “Peptides and combination of peptides for use in immunotherapy against various tumors” (IMMATICS BIOTECHNOLOGIES GMBH, priority 2015, dated 2018).

Target: HLA-A*02:01 (Homo sapiens, UniProt P04439, D140Y/D185E/D98H/E176V/E277Q/G131W/G231S/I119V/I121R/I166T/I218V/L300P/L318F/N151K/N90K/P208A/P217A/Q86G/Q94H/R138H/R169H/T345S)
Test: MHC binding assay: UV-ligand exchange and β2m ELISA (peptide exchange yield, Table 7)
Conditions: binding of HLA-class I restricted peptides to HLA-A*02:01, UV-ligand exchange
In short: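 Peptide-MHC complexes made by UV-mediated exchange of a cleavable ligand for test peptide; exchange yield measured by ELISA detecting β2m of stabilized complexes captured on streptavidin, using refolded HLA-A*02:01/MLA-001 monomer standards (15-500 ng/ml). Samples diluted 100-fold; HRP anti-β2m, TMB, absorbance 450 nm.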

Row | Substance | Peptide exchange (MHC class I binding score, peptide exchange yield)
1 | 136 (LLWDAPAKC; listed as Homo sapiens) [compound 136] | +++ (≥50% = +++)
2 | 137 (KLIYKDLVSV; listed as Homo sapiens) [compound 137] | ++ (≥20% = ++)
3 | 138 (GIINKLVTV; listed as Homo sapiens) [compound 138] | ++ (≥20% = ++)
4 | 139 (IILENIQSL; listed as Homo sapiens) [compound 139] | +++ (≥50% = +++)
5 | 140 (FLDSQITTV; listed as Homo sapiens) [compound 140] | +++ (≥50% = +++)
6 | 141 (NIDINNNEL; listed as Homo sapiens) [compound 141] | ++ (≥20% = ++)
7 | 142 (LLDAAHASI; listed as Homo sapiens) [compound 142] | ++ (≥20% = ++)
8 | 143 (MLWESIMRV; listed as Homo sapiens) [compound 143] | +++ (≥50% = +++)
9 | 144 (FLISQTPLL; listed as Homo sapiens) [compound 144] | +++ (≥50% = +++)
10 | 145 (ALEEKLENV; listed as Homo sapiens) [compound 145] | +++ (≥50% = +++)
11 | 146 (VVAAHLAGA; listed as Homo sapiens) [compound 146] | ++ (≥20% = ++)
12 | 147 (GLLSALENV; listed as Homo sapiens) [compound 147] | +++ (≥50% = +++)
13 | 148 (YLILSSHQL; listed as Homo sapiens) [compound 148] | +++ (≥50% = +++)
14 | 149 (NMADGQLHQV; listed as Homo sapiens) [compound 149] | ++ (≥20% = ++)
15 | 150 (VLLDMVHSL; listed as Homo sapiens) [compound 150] | +++ (≥50% = +++)
16 | 151 (DISKRIQSL; listed as Homo sapiens) [compound 151] | ++ (≥20% = ++)
17 | 153 (KLVELEHTL; listed as Homo sapiens) [compound 153] | +++ (≥50% = +++)
18 | 154 (AIIKEIQTV; listed as Homo sapiens) [compound 154] | ++ (≥20% = ++)
19 | 155 (TLDSYLKAV; listed as Homo sapiens) [compound 155] | ++ (≥20% = ++)
20 | 157 (ILQDGQFLV; listed as Homo sapiens) [compound 157] | ++ (≥20% = ++)
21 | 158 (YLDPLWHQL; listed as Homo sapiens) [compound 158] | +++ (≥50% = +++)
22 | 159 (QLGPVPVTI; listed as Homo sapiens) [compound 159] | +++ (≥50% = +++)
23 | 160 (TLQEWLTEV; listed as Homo sapiens) [compound 160] | +++ (≥50% = +++)

Row | Substance | Peptide exchange (MHC class I binding score, peptide exchange yield)
24 | 161 (NLLDENVCL; listed as Homo sapiens) [compound 161] | ++++ (≥75% = ++++)
25 | 162 (GLLGNLLTSL; listed as Homo sapiens) [compound 162] | +++ (≥50% = +++)
26 | 163 (GLEERLYTA; listed as Homo sapiens) [compound 163] | ++ (≥20% = ++)
27 | 164 (MLIIRVPSV; listed as Homo sapiens) [compound 164] | +++ (≥50% = +++)
28 | 165 (SLLDYEVSI; listed as Homo sapiens) [compound 165] | +++ (≥50% = +++)
29 | 166 (LLGDSSFFL; listed as Homo sapiens) [compound 166] | +++ (≥50% = +++)
30 | 167 (LVVDEGSLVSV; listed as Homo sapiens) [compound 167] | +++ (≥50% = +++)
31 | 168 (VIFEGEPMYL; listed as Homo sapiens) [compound 168] | +++ (≥50% = +++)
32 | 169 (ALADLSVAV; listed as Homo sapiens) [compound 169] | +++ (≥50% = +++)
33 | 170 (FIAAVVEKV; listed as Homo sapiens) [compound 170] | ++ (≥20% = ++)
34 | 171 (LLLLDVPTA; listed as Homo sapiens) [compound 171] | ++ (≥20% = ++)
35 | 173 (RLIDIYKNV; listed as Homo sapiens) [compound 173] | +++ (≥50% = +++)
36 | 174 (ALYSGDLHAA; listed as Homo sapiens) [compound 174] | ++ (≥20% = ++)
37 | 175 (SLLDLVQSL; listed as Homo sapiens) [compound 175] | +++ (≥50% = +++)
38 | 176 (VQSGLRILL; listed as Homo sapiens) [compound 176] | ++ (≥20% = ++)
39 | 177 (ALINVLNAL; listed as Homo sapiens) [compound 177] | +++ (≥50% = +++)
40 | 178 (SLVSWQLLL; listed as Homo sapiens) [compound 178] | ++++ (≥75% = ++++)
41 | 179 (TLGEIIKGV; listed as Homo sapiens) [compound 179] | +++ (≥50% = +++)
42 | 180 (RLYEEEIRI; listed as Homo sapiens) [compound 180] | +++ (≥50% = +++)
43 | 181 (LLWAPTAQA; listed as Homo sapiens) [compound 181] | +++ (≥50% = +++)
44 | 182 (GLQDGFQITV; listed as Homo sapiens) [compound 182] | +++ (≥50% = +++)
45 | 183 (ALSYILPYL; listed as Homo sapiens) [compound 183] | +++ (≥50% = +++)
46 | 184 (ALDSTIAHL; listed as Homo sapiens) [compound 184] | ++ (≥20% = ++)

Row | Substance | Peptide exchange (MHC class I binding score, peptide exchange yield)
47 | 185 (TLYQGLPAEV; listed as Homo sapiens) [compound 185] | ++ (≥20% = ++)
48 | 187 (SILKEDPFL; listed as Homo sapiens) [compound 187] | ++ (≥20% = ++)
49 | 188 (VLGEEQEGV; listed as Homo sapiens) [compound 188] | ++ (≥20% = ++)
50 | 190 (SLSTELFKV; listed as Homo sapiens) [compound 190] | +++ (≥50% = +++)
51 | 191 (AAIEIFEKV; listed as Homo sapiens) [compound 191] | +++ (≥50% = +++)
52 | 192 (TLLPSSGLVTL; listed as Homo sapiens) [compound 192] | ++ (≥20% = ++)
53 | 193 (ALFHMNILL; listed as Homo sapiens) [compound 193] | +++ (≥50% = +++)
54 | 194 (KLLEEVQLL; listed as Homo sapiens) [compound 194] | ++ (≥20% = ++)
55 | 195 (VIIQNLPAL; listed as Homo sapiens) [compound 195] | +++ (≥50% = +++)
56 | 198 (ILTNKVVSV; listed as Homo sapiens) [compound 198] | ++ (≥20% = ++)
57 | 199 (SVADLAHVL; listed as Homo sapiens) [compound 199] | ++ (≥20% = ++)
58 | 200 (IMPTFDLTKV; listed as Homo sapiens) [compound 200] | +++ (≥50% = +++)
59 | 203 (FLFVDPELV; listed as Homo sapiens) [compound 203] | ++ (≥20% = ++)
60 | 204 (SEWGSPHAAVP; listed as Homo sapiens) [compound 204] | +++ (≥50% = +++)
61 | 206 (GLDAFRIFL; listed as Homo sapiens) [compound 206] | ++++ (≥75% = ++++)
62 | 207 (KLFETVEEL; listed as Homo sapiens) [compound 207] | +++ (≥50% = +++)
63 | 208 (HLNNDRNPL; listed as Homo sapiens) [compound 208] | ++ (≥20% = ++)
64 | 210 (GLAGDNIYL; listed as Homo sapiens) [compound 210] | +++ (≥50% = +++)
65 | 211 (LLTTVLINA; listed as Homo sapiens) [compound 211] | +++ (≥50% = +++)
66 | 212 (MTLSEIHAV; listed as Homo sapiens) [compound 212] | ++ (≥20% = ++)
67 | 213 (ILAVDGVLSV; listed as Homo sapiens) [compound 213] | +++ (≥50% = +++)
